In PMC12574955, “The Ync13–Rga7–Rng10 complex selectively coordinates secretory vesicle trafficking and secondary septum formation during cytokinesis” (PLOS Biology, 2025):

Target: T1, MBP-Ync13-6xHis (Schizosaccharomyces pombe, UniProt O13683 1-1237)
T1 construct: Ync13, Munc13/UNC-13 family protein of Schizosaccharomyces pombe; FL cDNA in pET21a-MBP; MBP-TEV-GGSGGS precedes Ync13; also called MBP-Ync13-6His; not shown: MBP, N-terminal, kept; His6, C-terminal, kept
T1 sequence (looked up): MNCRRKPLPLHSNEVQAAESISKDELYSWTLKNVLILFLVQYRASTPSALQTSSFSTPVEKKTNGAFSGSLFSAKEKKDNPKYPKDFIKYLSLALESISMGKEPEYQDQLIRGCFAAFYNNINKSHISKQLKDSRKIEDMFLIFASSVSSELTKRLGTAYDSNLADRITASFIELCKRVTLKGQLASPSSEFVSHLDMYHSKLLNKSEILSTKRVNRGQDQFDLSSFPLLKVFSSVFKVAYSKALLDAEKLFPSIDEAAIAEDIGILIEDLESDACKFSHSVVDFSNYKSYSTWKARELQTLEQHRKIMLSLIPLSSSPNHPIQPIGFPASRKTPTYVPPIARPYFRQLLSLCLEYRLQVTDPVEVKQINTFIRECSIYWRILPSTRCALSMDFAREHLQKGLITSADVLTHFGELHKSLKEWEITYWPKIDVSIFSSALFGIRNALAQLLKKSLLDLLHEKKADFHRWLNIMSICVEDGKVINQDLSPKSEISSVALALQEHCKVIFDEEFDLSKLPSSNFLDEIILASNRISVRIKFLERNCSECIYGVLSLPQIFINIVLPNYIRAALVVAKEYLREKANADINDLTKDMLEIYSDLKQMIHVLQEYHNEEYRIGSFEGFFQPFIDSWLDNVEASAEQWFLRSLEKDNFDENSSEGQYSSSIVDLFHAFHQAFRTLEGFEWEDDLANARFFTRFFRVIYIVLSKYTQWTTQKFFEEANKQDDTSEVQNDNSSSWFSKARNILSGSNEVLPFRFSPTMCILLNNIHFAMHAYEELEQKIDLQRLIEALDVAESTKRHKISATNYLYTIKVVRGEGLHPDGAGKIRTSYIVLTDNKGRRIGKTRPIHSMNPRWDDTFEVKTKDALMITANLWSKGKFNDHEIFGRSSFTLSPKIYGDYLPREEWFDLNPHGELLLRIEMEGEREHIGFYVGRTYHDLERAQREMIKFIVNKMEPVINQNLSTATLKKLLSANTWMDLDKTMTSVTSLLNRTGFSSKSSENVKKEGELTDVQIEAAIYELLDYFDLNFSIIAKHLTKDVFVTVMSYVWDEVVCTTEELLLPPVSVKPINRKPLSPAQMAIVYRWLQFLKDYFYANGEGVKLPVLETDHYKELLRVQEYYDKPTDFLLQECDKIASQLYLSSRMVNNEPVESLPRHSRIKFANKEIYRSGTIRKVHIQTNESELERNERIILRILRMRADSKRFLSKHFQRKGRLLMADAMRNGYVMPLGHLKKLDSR
Assay: supernatant depletion assay; Rga7-6xHis at 4 µM titrated with MBP-Ync13-6xHis immobilized on Cobalt beads; beads pelleted at 16,000g, supernatant on SDS-PAGE, Coomassie, bound fraction fitted
Settings: both partners purified

B1: Rga7-6xHis (natural protein, Schizosaccharomyces pombe, UniProt O94466 1-695, looked up)
chain: MLSAPSSSTTPASPPTSPPNTTSSDDFAVLKEPKVEAILNSELGLAILNDRIKDYLLTCKELAGFFKKRSILEEESGKNLQKLAKSYLETFQSKHHSPQSFSASVITSMEIHEQLANHSLTLQKTLSAFSDQVIEFHKNAERKRKSIKEYAKKQENAYLEAVMQMDKSKSRFKGAETEYNRALDNKNTGDSQKKVGFFKPKSNAQLTKLEDEARLKAENAESDMHSKIENAQNVQKQLLCIHRPNYIKQFFSLQREIESSLIANYLRYTKLCESNTLLNGLTIRPQKPTPTNCGLQHALDNINANTDFVQYVLHASIKHEDNKNPTDASKTKIIQPPSSYGTGSSAGKTNPPVNPTIKVTAAIPSPLQNTNPAPSTFPNPSVASPAFPNSSTSNPSTAPASASPLASTLKPSTANDTNGSSSSSSSNPRTSSPLASNAENKPPVAQQSPPVLLPTLPPIQTTTIQTSREVAPPPSSINSNRAASPFRPTSVSPQPSSPTKSLLFGARLDAIILREHSNIPNIVMQCTSQVENFGLNLQGIYRVPSSSARVNMLRSQFENNPLLQLHTPEDYENDVHAVADLLKIFFRELREPLIPDNHQRDFIDAGNVEDESRRRDAVHRAINDLPDANYSTIRHLTIHLAKIKENSDVNKMSTNNLAIIWGPTIIKQATIPEISSFSRTIEILIDYCFTIFDYD
notes: Rga7, F-BAR protein and Rho2 GAP of Schizosaccharomyces pombe; FL Rga7 in pET21a; also called Rga7-6His; not shown: His6, C-terminal, kept
Kd: 10 µM
